# Experiment: soluble on expression in E. coli; label from the status in PepcDB or PDB records
row,Sequence,soluble on expression in E. coli
1,MKVLTVVIPCYNSAEYMDRAIESLLIGDEELEILIVNDGSMDNTSIIADEYEKKYPNTIRVIHKENGGHGDAINTGLKHSKGVYFKVLDSDDWFDKASLKKVLEVLKNMIKDSKSLDMLISNYVYENFSINKSRSINYKGAMPKEKIFTWDSLGHLKSSQNILMHSVIYRTELLRECNLDLPKHTFYVDNIFVYKPLPYVKTMYYLDVDLYRYFIGREDQSVNEKVMIKRIDQQIKVTKILIDCYNPMLLNCKKLRKYMVKYLVMMMTVSTVLLIKDNTEQSLNKKRELWSYLHSKNRKLYFEVNKSFLGLLIQIKGFVGRKIILLGYSLSRKVFGFNLEHHHHHH,not soluble
2,MKVLVTGATSGLGRNAAQWLLEAGHEVYAIGRDQLAGEELRKLGATFIPLDLTMTTMEVCQQWLKTCDVVWHCAAKSAPWGNPQDFHQTNVVVTHKLAQAAGREGVKRFIHISSPAVYFDFRHHHDLPETYRASRFSSHYASSKYAAEQVLHECIAHYPDTTYVILRPRGLFGPHDRVIVPRLLQQLSRDRNVLRLPGGGQAQLDLTFVLNVVHAMMLATDNDGLRSGAIYNITNQEPQRLVTMLDSLLNQQLHINYTLQPVPYSLLSVVAAGMELVASMTQKEPLLTRYSVGAVYFDMTLNSERAINELGYRPRYSMAEGIVLAGEWLSAQRSGQHG,not soluble
3,MKVNKALTIAGSDSGGGAGIQADLKTFQELGVYGMTAITAITAQNTLGVQGVYPVSLEGITEQLNSIGTDLTPDAVKIGMLFSSEIIQIVAEYINKFGWNNIVLDPVMIAKGGASLLQQEAVQALKEYLLPVATVITPNVPEAEVLTGLEIHNIEDSKEAAKVLHELGAKYVLMKGGHAEYQGNEVIDLLFDGEKFIEFRSERIPSKQTHGSGCTFASAVTAGLAKGYSMEEAVQEAKRFISIAIEEPLHIGSGHGPTNHFAYKMNKAQV,not soluble
4,MKVVAFNGSPRKEGNTASLIKHVLAELDKEGIETEIVQIGGKSVHGCTACSKCFENRDRRCVIDNDIVNECIEKMLEADGIILASPTYFADLTPELKALIDRAGFVAKANSEMFRYKVGAAVVAVRRAGSIHVFDSINHFFTISQMIIPGSSYWNMGIGRAEGDVEKDDEGIRTMQILGQNMAWLLKKLNELEHHHHHH,not soluble
5,MKVVAVGGGTGLSTLLKGLKNIDSFEITAVVSVTDEGGSSGKLRKELNVPPPGDVRNNIVALAKDEDLLAKLMSYRFSEGSFKGHSLGNLIIAALTKIEGSFSEAIRILERVLAIKGRVLPVSEDHARLVARFEDGEEVIGETNIVRKGGKIVEVRLDRPIDALPEVLEAIERADIIIFGPGSLYTSIITNVLVNGVKDAIKKSKAKKIYVCNLMTQPGETTGYRVSDHVKELERYLEQSVDFVLVNTRKPSEEVLERYRKEGSDFVEIDAENIQNTILAEPFLVEIVDPSDGQRKIRHDSVKLADVIERISRW,soluble
6,MKVVVQIKDFDKVPQALRSVINLYNDIKDAEIEVVLHQSAIKALLKDSDTRSIIEDLIKKNILIVGCENSIRSQNLSHDQLIPGIKIVTSGVGEIVRKQSEGWIYLAL,soluble
7,MKVYKDVFTNDEVCSDSYNQEDPFGIADFREIAFEVKSNKRIKGNDDYGIADNSEEAVDGMGADVEQVIDIVDSFQLTSTSLSKKEYSVYIKNYMQKILKYLEEKKPDRVDVFKTKAQPLIKHILTNFDDFEFYMGESLDMDAGLTYSYYKGEEVTPRFVYISDGLYEEKF,soluble
8,MKVYYPGREWPEEYKRVLEKMKEIIDPVTGDNILDSGVVAGLEVKDRTLKVWLRFESQAEYNILGGAAMAYSKIVGDIMEKFALVMFDNVYVYDLRNNIVGVFEKKK,soluble
9,MKYDWILFDADETLFHFDAFKGLQLMFSRKGVDFTEQDFAHYQTVNKPLWVDYQDGKVTADELKHKRFTEWAEKLNTTTADLNSAFLEAMADICS,not soluble
10,MKYKIIVIDVFNTLLNNKYELTEENRNALLYIQKELGIRVVLTSGRTVAALKPLAEELNLREYSGYLIPYHGGQIVNCRSGKVIASHRMATSFVEVLDARARAEGVTLLAFGKDSIFSTDPHDPLAVKESDICGQPLVSKHPRSSEVIKCSFVGEAEKIAELEVVMRRDYGDKLNIFRSSETLLECLPSE,not soluble
11,MKYLLPTAAAGLLLLAAQPAMAMASGGNSDSKTLNSLDKIKQNGVVRIGVFGDKPPFGYVDEKGNNQGYDIALAKRIAKELFGDENKVQFVLVEAANRVEFLKSNKVDIILANFTQTPQRAEQVDFCSPYMKVALGVAVPKDSNITSVEDLKDKTLLLNKGTTADAYFTQNYPNIKTLKYDQNTETFAALMDKRGDALSHDNTLLFAWVKDHPDFKMGIKELGNKDVIAPAVKKGDKELKEFIDNLIIKLGQEQFFHKAYDETLKAHFGDDVKADDVVIEGGKILEHHHHHH,soluble
12,MKYMIGVDIGTTSTKSVLYDENGTFIMKHQIGYDLHTPNVDVSEENPDELFDAVLMTIKYVMRESKVNKDDIKFVSFSAQMHSLIAMDQQHQRLTNNITWADNRAAKYATVINEVHDGNAIYQRTGTPIHPMSPLAKIFWMKHEWQDVFQRTAKFADIKTYIFYHLFDTYIIDYSMASATGMFNLETLDWDVEALELLGISKEMLPELVPTTYVMKGMKERYATLMGLNKDTPFVIGASDGVLSNLGVNSVGKGEVAVTIGTSGAIRTVIDKPRTDYKGRIFCYVLTEDHYVIGGPVNNGGVVLRWLRDELLASEVETAKRLGVDPYDVLTQIAKRVKPGADGLIFHPYLAGERAPLWNANARGSFFGLTLSHKKEHMIRAALEGVLYNLYTVYLALIEVMNETPKMIKATGGFAKSEVWRQMMSDIFDTELVVPESYESSCLGACVLGLKAVGDIEDFSIVSSMVGATNNHTPIEENVTVYQEIVSIFINLSRSLTENYEQIADFQRQHIAENKTQ,not soluble
13,MKYSYVARQPILDREKRTIGYELLFRDGPKNTFPEVEPELATSRLLSDHFLSTHYNTLGNKLGFVNFPHQSLVNLVPTLFPKDSLVIEVLEDCEPTQELLDAIKHLHECGYRIALDDFVPTKAWKRFLPYVSMIKFDIRLVPIEKAAIFIQALSQFNIDFLAEKVETYEEFEQALDAGFNYFQGYFFSKPEMIQKKRLNPAFLTVIQLCKEIADKPIDFNEVERLFSIDVTLSYKLLTYVNSGYTLTTKIKSFRQALIYLGEERLRRFISLVAIASVQEDKPDSLYSLAIQRARMCEILLSQMKTKYDPGQAFLTGMFSLLGSLLDQPLSDVIEDIPVDEDIKLALTSRKGVLGYLLSMCIAYEQADWELAERYCSVLKLTETQLADAFNESTEWAQELLSQTP,not soluble
14,MLAAYRGRVMTRIAVELSLLTFVRSSELRFARWDEFDFDKSLWRIPAKREEIKGVRYSYRGMKMKEEHIVPLSRQAMILLEQLKQISGDKELLFPGDHDATKVMSENTVNSALRAMGYDTKTEVCGHGFRTMARGALGESGLWSEDAIERQLSHSERNSVRAAYIHTSEHLDERRLMVQWWADYLDANKIKPLEHHHHHH,not soluble
15,MLDAFAKVVAQADARGEFLTNAQFDALSNLVKEGNKRLDAVNRITSNASTIVANAARALFAEQPQLIQPGGNAYTNRRMAACLRDMEIILRYVTYAILAGDSSVLDDRCLNGLRETYQALGTPGSSVAVAIQKMKDAAIAIANDPNGITPGDCSALMSEIAGYFDRAAAAVA,soluble
16,MLDFEKPLFEIRNKIDSLKESQEKNEVDLQDEIDMLEASLKRETTKVYTNLKPWDRVQIARLPERPTTLDYIPYIFDSFIELHGDRSFRDDPAMIGGIGYLDGKSVTVIGQQRGKDTKDNIYRNFGMAHPEGYRKALRLMKQAEKFNR,not soluble
17,MLDKNVLNEIGSKVNEILASSPARDVEKNMRAMLTGAFARLDLVTREEFDVQQEVIKRTRIKLAELEEKVRKLEQQLQQPAEVVSSNETGDA,not soluble
18,MLDVPHGKFGFTKGCIIAVILLSLSRTLNRGQLNLERFEFWQPTSQLLALDVCLRDAFALEHHHHHH,not soluble
19,MLEEYEKKRDFNKTSEPPARGEEKNSDKPVFVVQRHDATNLHYDFRLEMDGVLKSWAVPKEPPKSPGTRRLAIETEDHPLGYADFEGEIPEGQYGAGRVEIWDRGTFELLKRNEKEIIITLHGEELEGDYVLIKTKYGKEDKGWLFFKKKTGLEHHHHHH,soluble
20,MLEFEQGFNHLATLKVIGVGGGGNNAVNRMIDHGMNNVEFIAINTDGQALNLSKAESKIQIGEKLTRGLGAGANPEIGKKAAEESREQIEDAIQGADMVFVTSGMGGGTGTGAAPVVAKIAKEMGALTVGVVTRPFSFEGRKRQTQAAAGVEAMKAAVDTLIVIPNDRLLDIVDKSTPMMEAFKEADNVLRQGVQGISDLIAVSGEVNLDFADVKTIMSNQGSALMGIGVSSGENRAVEAAKKAISSPLLETSIVGAQGVLMNITGGESLSLFEAQEAADIVQDAADEDVNMIFGTVINPELQDEIVVTVIATGFDDKPTSHGRKSGSTGFGTSVNTSSNATSKDESFTSNSSNAQATDSVSERTHTTKEDDIPSFIRNREERRSRRTRR,not soluble
21,MLEFQTPELLRMPLQELCLHTKLLAPVNCPIADFLMKAPEPPPALIVRNAVQMLKTIDAMDTWEDLTELGYHLADLPVEPHLGKMVLCAVVLKCLDPILTVACTLAYRDPFVLPTQASQKRAAMLCRKRFTAGAFSDHMALLRAFQAWQKARSDGWERAFCEKNFLSQATMEIIIGMRTQLLGQLRASGFVRARGGGDIRDVNTNSENWAVVKAALVAGMYPNLVHVDRENLVSTGPKEKKVRFHPASVLSQPQYKKIPPANGQAAAIKALPTDWLIYDEMTRAHRIANIRCCSAVTPVTILVFCGPARLASNALQEPSSFRVDGIPNDSSDSEMEDKTTANLAALKLDEWLHFTLEPEAASLLLQLRQKWHSLFLRRMRAPSKPWSQVDEATIRAIIAVLSTEEQSAGLQQPSGIGQRPRPMSSEELPLASSWRSNNSRKSSADTEFSDECTTAERVLMKSPSPALHPPRKYKDRGILHPKRGTEDRSDQSSLKSTDSSSYPSPCASPSPPSSGKGSKSPSPRPNMPVRYFIMKSSNLRNLEISQQKGIWSTTPSNERKLNRAFWESSIVYLVFSVQGSGHFQGFSRMSSEIGREKSQDWGSAGLGGVFKVEWIRKESLPFQFAHHLLNPWNDNKKVQISRDGQELEPQVGEQLLQLWERLPLGEKNTTD,soluble
22,MLEPSHNDELPPIPGKRYFTIGEVSELCAVKPHVLRYWEQEFPQLNPVKRRGNRRYYQRLDVLMIRQIRGLLYDQGFTIGGARLRLTAGEPKDDTQQYKQMIREMIAELEDVLVMLKA,not soluble
23,MLFTKASEYALLSLIYISQKETPQDVDSLALELDIPKSFLAKILQTLAKDGLLKSFKGAKGGFVLIKEPSQYTIKEIVNSAEKKDISVFECSGGTCPNNKEENCTLMPMLVNLQNKVDEFLDSITLEDIMKNNGKK,soluble
24,MLGAIIGDIVGSVYEWNNIKTKDFPLFRKDCFFTDDTVMTCAVAEAIMNGGQKDDFIDAMKKYGRMYPNADYGARFNAWLNSDNREPYNSFGNGSAMRISPCAWIMDCGFYAKTGIWPSSRGLTSLSAEVTHNHPEGVKGAMATADAIFLCRFYFGGYCREYEQSINDNPTECKRRIKDYIEKEYDYNLSQTLDEIRPNYRFNETCQETVPQAIIAFLESRDFEDAIRNAISLGGDSDTLAAITCSIAEAAYGIPDWIKDKAYSYLDEPLKDVVRRWENRIKAYLEHHHHHH,soluble
25,MLGENHALIYEFPDFADHIRHLKKNNTIFATMAQRYHELDHKIRALELTKVPTDDEHFVALKLERLHLKDKLYQYLVHDAI,soluble

# — the DeepSol protein solubility set
